These results are taken from US20190284293A1 (Bristol-Myers Squibb, published 2019).

Experiment [1] addresses T1, rhCD73 bound to his-tag magnet beads (human, UniProt P21589 27-547, limits assumed).
T1 sequence: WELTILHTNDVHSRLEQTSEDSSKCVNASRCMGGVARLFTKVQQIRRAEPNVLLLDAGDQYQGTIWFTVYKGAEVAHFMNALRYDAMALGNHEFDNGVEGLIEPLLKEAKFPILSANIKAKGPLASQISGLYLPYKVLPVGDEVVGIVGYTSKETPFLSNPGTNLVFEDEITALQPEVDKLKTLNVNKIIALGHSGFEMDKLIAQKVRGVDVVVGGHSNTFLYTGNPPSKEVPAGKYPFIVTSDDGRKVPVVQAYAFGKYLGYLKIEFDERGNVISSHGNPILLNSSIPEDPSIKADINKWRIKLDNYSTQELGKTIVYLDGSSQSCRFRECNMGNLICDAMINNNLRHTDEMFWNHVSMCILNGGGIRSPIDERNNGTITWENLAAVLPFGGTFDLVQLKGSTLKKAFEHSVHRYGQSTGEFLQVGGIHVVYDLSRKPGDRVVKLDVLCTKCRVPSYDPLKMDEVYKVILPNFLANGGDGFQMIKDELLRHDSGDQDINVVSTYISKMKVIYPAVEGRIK
Kind of experiment: cell-based or functional assay.

The target in experiment [2] is T2, cyno CD73, Sino Biological Inc Cat#90192-C08H, bound to his-tag magnet beads (cynomolgus, UniProt P21589 27-547 (human entry)).
T2 chain: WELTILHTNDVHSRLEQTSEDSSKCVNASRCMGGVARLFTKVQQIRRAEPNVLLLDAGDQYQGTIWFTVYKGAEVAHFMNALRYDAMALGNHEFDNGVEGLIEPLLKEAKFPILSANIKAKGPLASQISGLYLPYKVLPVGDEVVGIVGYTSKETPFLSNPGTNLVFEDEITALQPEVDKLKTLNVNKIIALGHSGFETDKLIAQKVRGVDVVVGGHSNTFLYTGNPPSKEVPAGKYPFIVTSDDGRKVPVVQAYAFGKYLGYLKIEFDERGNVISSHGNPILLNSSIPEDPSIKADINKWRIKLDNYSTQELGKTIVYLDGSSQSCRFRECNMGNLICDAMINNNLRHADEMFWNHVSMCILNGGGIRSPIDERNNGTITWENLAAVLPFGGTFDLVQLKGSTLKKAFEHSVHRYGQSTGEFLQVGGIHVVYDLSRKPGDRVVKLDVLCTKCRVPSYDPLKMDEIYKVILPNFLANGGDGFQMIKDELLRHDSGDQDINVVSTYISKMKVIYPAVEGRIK
The experiment can be described thus: cell-based or functional assay.

Experiment [3] deals with T3, human CD73 on cells (human, UniProt P21589 27-549).
T3 sequence: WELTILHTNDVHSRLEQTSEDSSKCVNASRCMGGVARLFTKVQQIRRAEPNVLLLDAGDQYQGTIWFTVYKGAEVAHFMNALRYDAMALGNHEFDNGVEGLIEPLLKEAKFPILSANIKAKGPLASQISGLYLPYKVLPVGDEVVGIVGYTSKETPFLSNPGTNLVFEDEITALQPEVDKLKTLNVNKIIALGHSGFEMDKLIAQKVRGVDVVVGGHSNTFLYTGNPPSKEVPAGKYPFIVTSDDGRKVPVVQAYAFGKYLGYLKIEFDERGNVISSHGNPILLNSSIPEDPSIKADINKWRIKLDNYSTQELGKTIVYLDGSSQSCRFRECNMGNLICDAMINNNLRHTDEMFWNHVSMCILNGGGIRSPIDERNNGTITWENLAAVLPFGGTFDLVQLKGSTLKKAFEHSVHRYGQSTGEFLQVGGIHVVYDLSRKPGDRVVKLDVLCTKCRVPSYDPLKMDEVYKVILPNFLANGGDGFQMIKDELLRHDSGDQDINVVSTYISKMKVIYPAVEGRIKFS
The experiment can be described thus: cell-based or functional assay.

In experiment [4] the target is T3, human CD73 on cells. The experiment can be described thus: cell-based or functional assay. This is another data set of the same source.
Experiment [5] has as its target T4, cynomolgus CD73 on transfected CHO cells (cynomolgus, UniProt P21589 27-549 (human entry)).
T4 construct: also called CHO-cynoCD73; CHO-Cynomolgus CD73 transfectants
T4 chain: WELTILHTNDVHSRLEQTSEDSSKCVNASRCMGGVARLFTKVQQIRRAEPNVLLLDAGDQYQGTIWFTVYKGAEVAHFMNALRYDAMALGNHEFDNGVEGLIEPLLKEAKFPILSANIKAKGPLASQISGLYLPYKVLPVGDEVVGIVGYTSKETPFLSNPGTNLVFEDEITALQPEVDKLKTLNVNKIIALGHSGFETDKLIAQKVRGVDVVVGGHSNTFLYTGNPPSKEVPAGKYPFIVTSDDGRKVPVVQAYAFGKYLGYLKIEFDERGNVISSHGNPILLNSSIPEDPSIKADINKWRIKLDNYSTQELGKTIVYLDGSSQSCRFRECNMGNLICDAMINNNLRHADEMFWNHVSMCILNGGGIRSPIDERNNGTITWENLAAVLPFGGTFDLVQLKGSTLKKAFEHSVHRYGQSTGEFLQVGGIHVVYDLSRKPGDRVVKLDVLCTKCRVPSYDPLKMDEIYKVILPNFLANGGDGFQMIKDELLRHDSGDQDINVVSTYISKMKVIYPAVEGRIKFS
Kind of experiment: flow cytometry, CHO-cynoCD73 cells. Here is the method: Titration binding curves were produced with CD73 antibodies on Calu6 (CD73 endogenous expressors; human pulmonary adenocarcinoma cell line), DMS114 (CD73 negative; human small cell lung cancer cell line), CHO-cynoCD73 (cynoCD73-transfected) and CHO-K1 (cynoCD73 negative), cells using Alexa Fluor® 647 Goat Anti-Human IgG (H+L) as a secondary antibody, Invitrogen Cat#A-21445, using the following method: 100000 cells were plated in 100 uL PBS+2% FBS per well and blocked for 20 min. Using a U-bottom 96-deep well plate, volumes of antibody and PBS+2% FBS were combined as dictated by Table 12 below.
An 8-point serial dilution was performed by diluting a sixth of the volume (90 uL) into […], PBS+2% FBS. The cell plate was spun down for 5 minutes at 1500 rpm. 100 uL of diluted antibody was added per well of the plate. 100 uL PBS+2% FBS were added to all other wells. […] The plates were spun down at 1500 rpm for 5 min and washed in 200 uL PBS+2% FBS per well. The plates were washed again, resuspended in 200 uL 2% FBS in PBS per well and the samples were run.
Background: In flow cytometry, cells or beads pass a laser one at a time.

B1: CD73.10-IgG2-C219S-IgG1.1f (antibody)
heavy: QVQLVESGGGVVQPGRSLRLSCAASGFTFSNYGMHWVRQAPGKGLEWVAVIWYDESNKYYPDSVKGRFTISRDNSKNTLYLQMNSLRAEDTAVYYCARGGSSWYPDSFDIWGQGTMVTVSSASTKGPSVFPLAPCSRSTSESTAALGCLVKDYFPEPVTVSWNSGALTSGVHTFPAVLQSSGLYSLSSVVTVPSSNFGTQTYTCNVDHKPSNTKVDKTVERKSCVECPPCPAPPVAGPSVFLFPPKPKDTLMISRTPEVTCVVVDVSHEDPEVKFNWYVDGVEVHNAKTKPREEQYNSTYRVVSVLTVLHQDWLNGKEYKCKVSNKALPSSIEKTISKAKGQPREPQVYTLPPSREEMTKNQVSLTCLVKGFYPSDIAVEWESNGQPENNYKTTPPVLDSDGSFFLYSKLTVDKSRWQQGNVFSCSVMHEALHNHYTQKSLSLSPG
light: not shown
notes: also called CD73.10-IgG2CS-IgG1.1f; CD73.10-IgG2S-IgG1.1f
In the case of B1, the “EC50 (nM), inhibition of bead-bound human CD73 enzymatic activity” value in experiment [1] came to 4.84 nM. For the same molecule, in experiment [2], the “EC50 (nM), enzymatic inhibition of cyno CD73 (bead-bound)” value is 9.94 nM. In addition, the “EC50 Calu6 inhibition” value with human CD73 on cells [3] amounted to 0.77 nM. Further, in the experiment with human CD73 on cells [4], the “EC50 (nM), high-content internalization assay, Calu6, 2 h” value stood at 0.87 nM and the “Ymax, high-content internalization assay (percent of 100 nM 11F11)” value came to 99%. The response in experiment [5] was half-maximal at 1.27 nM (EC50).

B2: CD73.10-IgG2-C219S (antibody)
heavy: QVQLVESGGGVVQPGRSLRLSCAASGFTFSNYGMHWVRQAPGKGLEWVAVIWYDESNKYYPDSVKGRFTISRDNSKNTLYLQMNSLRAEDTAVYYCARGGSSWYPDSFDIWGQGTMVTVSSASTKGPSVFPLAPCSRSTSESTAALGCLVKDYFPEPVTVSWNSGALTSGVHTFPAVLQSSGLYSLSSVVTVPSSNFGTQTYTCNVDHKPSNTKVDKTVERKSCVECPPCPAPPVAGPSVFLFPPKPKDTLMISRTPEVTCVVVDVSHEDPEVQFNWYVDGVEVHNAKTKPREEQFNSTFRVVSVLTVVHQDWLNGKEYKCKVSNKGLPAPIEKTISKTKGQPREPQVYTLPPSREEMTKNQVSLTCLVKGFYPSDIAVEWESNGQPENNYKTTPPMLDSDGSFFLYSKLTVDKSRWQQGNVFSCSVMHEALHNHYTQKSLSLSPG
light: not shown
notes: also called CD73.10-IgG2CS; CD73.10-IgG2S
Consider B2, for which, in experiment [1], the “EC50 (nM), inhibition of bead-bound human CD73 enzymatic activity” value worked out at 7.54 nM. In experiment [2], the “EC50 (nM), enzymatic inhibition of cyno CD73 (bead-bound)” value worked out at 8.78 nM. For the same molecule, the “EC50 Calu6 inhibition” value with human CD73 on cells [3] is 0.84 nM. Besides, in the experiment with human CD73 on cells [4], the “EC50 (nM), high-content internalization assay, Calu6, 2 h” value was determined as 0.67 nM and the “Ymax, high-content internalization assay (percent of 100 nM 11F11)” value turned out to be 99%. The midpoint of the response in experiment [5], the EC50, lay at 1.24 nM.
